What is called Kd is the concentration at which binding is half-saturated.

From the Immune Epitope Database (IEDB) come the findings set out here.

Among the targets are HLA-A*01:01; HLA-A*30:02; HLA-A*29:02; HLA-A*24:02; HLA-A*26:01; HLA-A*23:01.
Assay in all cases: IEDB peptide-MHC binding, purified MHC/competitive/radioactivity; filed as Kd, often an IC50 or EC50 that approximates it; ≥ and ≤ were set here for values at or beyond the usual limits of such assays
For another experiment, the target named is HLA-A*68:01. Particulars: source organism: Vaccinia virus WR.
Another experiment has as its target HLA-A*03:01. To be noted: source organism: Vaccinia virus WR.
Another experiment has as its target HLA-A*33:01. Particulars: source organism: Vaccinia virus WR.
The target in a further experiment is HLA-A*31:01. Particulars: source organism: Vaccinia virus WR.
In a further experiment the target is HLA-A*11:01. To be noted: source organism: Vaccinia virus WR.
[1] abbreviates: source organism: SARS coronavirus Tor2.
[2] abbreviates: source organism: Vaccinia virus WR.
The mark [3] stands for this setting: source organism: Mammarenavirus brazilense.
Setting [4] is: source organism: Mammarenavirus machupoense.
[5] abbreviates: source organism: Lymphocytic choriomeningitis virus (strain Armstrong).
[6] abbreviates: source organism: Lassa virus Josiah.
The mark [7] stands for this setting: source organism: Mammarenavirus lassaense.
The mark [8] stands for this setting: source organism: Mammarenavirus juninense.

For KIEELFYSY, the Kd with HLA-A*01:01 (setting [1]) is 540 nM; with HLA-A*30:02 (setting [1]), 11.6 nM; with HLA-A*29:02 (setting [1]) it was 39.2 nM; with HLA-A*24:02 (setting [1]), at least 20700 nM; with HLA-A*26:01 (setting [1]) it was at least 81500 nM; with HLA-A*23:01 (setting [1]), at least 23900 nM.
For the sequence FIESSICLDY, the Kd with HLA-A*29:02 (setting [2]) is at least 40500 nM; in the experiment with HLA-A*68:01, 964 nM; with HLA-A*03:01 it was 2920 nM; with HLA-A*33:01, 5650 nM; in the experiment with HLA-A*31:01, 10100 nM; with HLA-A*11:01, 3930 nM.
In the case of EYGFTRRFKF, the Kd came to 133 nM with HLA-A*29:02 (setting [3]), 134 nM with HLA-A*24:02 (setting [3]) and 45.3 nM with HLA-A*23:01 (setting [3]).
In the case of ELADTSLSGY, the Kd with HLA-A*01:01 (setting [1]) is 73.6 nM; with HLA-A*30:02 (setting [1]), 76.7 nM; with HLA-A*29:02 (setting [1]), 89.2 nM; in the experiment with HLA-A*24:02 (setting [1]) it was at least 70300 nM; in the experiment with HLA-A*26:01 (setting [1]) it was 24.5 nM; with HLA-A*23:01 (setting [1]) it was at least 70000 nM.
For the sequence VDICFWSTI, the Kd is 1760 nM in the experiment with HLA-A*01:01 (setting [4]); 5110 nM with HLA-A*30:02 (setting [4]); at least 78900 nM in the experiment with HLA-A*29:02 (setting [4]); 1070 nM with HLA-A*24:02 (setting [4]); at least 77900 nM with HLA-A*26:01 (setting [4]); 12500 nM with HLA-A*23:01 (setting [4]).
For the sequence KWDLIISDMY, the Kd with HLA-A*01:01 (setting [1]) is at least 90900 nM; with HLA-A*30:02 (setting [1]), 85.9 nM; in the experiment with HLA-A*29:02 (setting [1]) it was 253 nM; with HLA-A*24:02 (setting [1]) it was at least 39400 nM; with HLA-A*26:01 (setting [1]) it was at least 20700 nM; with HLA-A*23:01 (setting [1]), at least 70000 nM.
Regarding FQPQNGQFI, the Kd is at least 78100 nM with HLA-A*01:01 (setting [5]); at least 76900 nM with HLA-A*30:02 (setting [5]); at least 78900 nM in the experiment with HLA-A*29:02 (setting [5]); 1260 nM in the experiment with HLA-A*24:02 (setting [5]); at least 77900 nM with HLA-A*26:01 (setting [5]); at least 20400 nM with HLA-A*23:01 (setting [5]).
Take IFFASFYYI: the Kd with HLA-A*01:01 (setting [1]) is 1300 nM; in the experiment with HLA-A*30:02 (setting [1]), 5130 nM; in the experiment with HLA-A*29:02 (setting [1]) it was 28.1 nM; with HLA-A*24:02 (setting [1]), 12.2 nM; with HLA-A*26:01 (setting [1]), 1800 nM; with HLA-A*23:01 (setting [1]) it was 6.45 nM.
For DPAKAYKDY, the Kd with HLA-A*01:01 (setting [1]) was at least 119000 nM; with HLA-A*30:02 (setting [1]) it was 9270 nM; in the experiment with HLA-A*29:02 (setting [1]), 446 nM; with HLA-A*24:02 (setting [1]), at least 77600 nM; with HLA-A*26:01 (setting [1]), at least 85500 nM; with HLA-A*23:01 (setting [1]) it was at least 77800 nM.
For VTYNCCDDDY, the Kd in the experiment with HLA-A*01:01 (setting [1]) was 32.6 nM; in the experiment with HLA-A*30:02 (setting [1]), 80 nM; with HLA-A*29:02 (setting [1]) it was 4490 nM; in the experiment with HLA-A*24:02 (setting [1]), at least 70300 nM; with HLA-A*26:01 (setting [1]) it was 18500 nM; with HLA-A*23:01 (setting [1]), at least 70000 nM.
In the case of EGKDTPGGY, the Kd is at least 37900 nM with HLA-A*01:01 (setting [6]); at least 76900 nM in the experiment with HLA-A*30:02 (setting [6]); at least 78900 nM in the experiment with HLA-A*29:02 (setting [6]); at least 77500 nM in the experiment with HLA-A*24:02 (setting [6]); at least 77900 nM with HLA-A*26:01 (setting [6]); at least 63200 nM with HLA-A*23:01 (setting [6]).
Consider TVDSSQGSEY, for which the Kd with HLA-A*01:01 (setting [1]) is 15.7 nM; with HLA-A*30:02 (setting [1]), 414 nM; with HLA-A*29:02 (setting [1]), 823 nM; with HLA-A*24:02 (setting [1]) it was at least 70300 nM; with HLA-A*26:01 (setting [1]), 1070 nM; with HLA-A*23:01 (setting [1]), at least 70000 nM.
With VSENTGMGMY, the Kd is 34 nM with HLA-A*29:02 (setting [2]); at least 36900 nM with HLA-A*68:01; 1620 nM with HLA-A*03:01; at least 24200 nM in the experiment with HLA-A*33:01; 13400 nM with HLA-A*31:01; 2360 nM with HLA-A*11:01.
Take KFADDLNQM: the Kd with HLA-A*01:01 (setting [1]) is at least 78100 nM; with HLA-A*30:02 (setting [1]) it was at least 30000 nM; in the experiment with HLA-A*29:02 (setting [1]), 124 nM; in the experiment with HLA-A*24:02 (setting [1]), 1500 nM; with HLA-A*26:01 (setting [1]) it was at least 44300 nM; with HLA-A*23:01 (setting [1]), 659 nM.
With AGFVAGLTY, the Kd with HLA-A*01:01 (setting [7]) is at least 35300 nM; in the experiment with HLA-A*30:02 (setting [7]), 520 nM; in the experiment with HLA-A*29:02 (setting [7]), 130 nM; with HLA-A*24:02 (setting [7]), at least 52600 nM; with HLA-A*26:01 (setting [7]) it was at least 77900 nM; with HLA-A*23:01 (setting [7]) it was 8020 nM.
Consider EMVCFHEFL, for which the Kd with HLA-A*29:02 (setting [8]) is at least 10000 nM; in the experiment with HLA-A*24:02 (setting [8]) it was 16900 nM; with HLA-A*23:01 (setting [8]), 1990 nM.
As for VWLGFIAGL, the Kd in the experiment with HLA-A*01:01 (setting [1]) is at least 78100 nM; with HLA-A*30:02 (setting [1]) it was 12 nM; with HLA-A*29:02 (setting [1]), 36.2 nM; with HLA-A*24:02 (setting [1]), at least 46900 nM; with HLA-A*26:01 (setting [1]), at least 77900 nM; with HLA-A*23:01 (setting [1]) it was 7040 nM.
Consider GERSRCYSVY, for which the Kd is at least 70400 nM with HLA-A*01:01 (setting [4]); 4510 nM in the experiment with HLA-A*30:02 (setting [4]); at least 71400 nM in the experiment with HLA-A*29:02 (setting [4]); at least 70300 nM in the experiment with HLA-A*24:02 (setting [4]); at least 69700 nM in the experiment with HLA-A*26:01 (setting [4]); at least 49100 nM with HLA-A*23:01 (setting [4]).
